Source: patent US20230057071A1 (NOVARTIS AG, priority 2019, published 2023)

Biological target: T1, TIM-3/Galectin-9 interaction (Homo sapiens, UniProt Q8TDQ0)
T1 construct: purchased R&D Systems
Assay: Plate-based (MesoScale) competition assay of the TIM-3/Galectin-9 interaction
Type: binding
Conditions: serial dilutions of antibody; labeled Galectin-9 100 nM
Procedure: FIG. 1 is a graph depicting the impact of MBG453 on the interaction between TIM3 and galectin-9. Competition was assessed as a measure of the ability of the antibody to block Gal9-SULFOTag signal to TIM-3 receptor, which is shown on the Y-axis. Concentration of the antibody is shown on the X-axis.
TIM-3 fusion protein (R&D Systems) was coated on a standard MesoScale 96 well plate (Meso Scale Discovery) at 2 μg/ml in PBS (Phosphate Buffered Saline) and incubated for six hours at room temperature. The plate was washed three times with PBST (PBS buffer containing 0.05% Tween-20) and blocked with PBS containing 5% Probumin (Millipore) overnight at 4° C. After incubation, the plate was washed three times with PBST and unlabeled antibody (F38-2E2 (BioLegend); MBG453; MBG453 F(ab′)2; MBG453 F(ab); or control recombinant human Galectin-9 protein) diluted in Assay Diluent (2% Probumin, 0.1% Tween-20, 0.1% Triton X-100 (Sigma) with 10% StabilGuard (SurModics)), was added in serial dilutions to the plate and incubated for one hour on an orbital shaker at room temperature. […] The plate was again washed three times with PBST, and Read Buffer T (1×) was added to the plate. The plate was read on MA600 Imager, and competition was assessed as a measure of the ability of the antibody to block Gal9-SULFOTag signal to TIM-3 receptor.

- block of the interaction between TIM-3 and Galectin-9 (Gal9-SULFOTag signal to TIM-3): did not
B1: control Galectin-9 protein: unlabeled control recombinant human Galectin-9 protein (protein)
chain: AFSGSQAPYLSPAVPFSGTIQGGLQDGLQITVNGTVLSSSGTRFAVNFQTGFSGNDIAFHFNPRFEDGGYVVCNTRQNGSWGPEERKTHMPFQKGMPFDLCFLVQSSDFKVMVNGILFVQYFHRVPFHRVDTISVNGSVQLSYISFQPPGVWPANPAPITQTVIHTVQSAPGQMFSTPAIPPMMYPHPAYPMPFITTILGGLYPSKSILLSGTVLPSAQRFHINLCSGNHIAFHLNPRFDENAVVRNTQIDNSWGSEERSLPRKMPFVRGQSFSVWILCEAHCLKVAVDGQHLFEYYHRLRNLPTINRLEVGGDIQLTHVQT
